What is called Kd is the concentration at which binding is half-saturated. The low end stands for higher affinity, the high end for lower affinity.

The values that follow come from patent US20260317437 (published 2026).

Positions count from the first letter of the chain named. Names may count otherwise.

B1: VH Y30Q (antibody, V domains shown)
VH: EVQLVESGGGLVQPGGSLRLSCAASGFNIQYNYIHWVRQAPGKGLEWVAEFSPYSGSTYYADSVKGRFTISADTSKNTAYLQMNSLRAEDTAVYYCARSAAIVDWYDYFKGFDYWGQGTLVTVSS
VL: DIQMTQSPSSLSASVGDRVTITCRASQSVSSAVAWYQQKPGKAPKLLIYSASSLYSGVPSRFSGSRSGTDFTLTISSLQPEDFATYYCQQYGSYLYTFGQGTKVEIK
B2: VL Y91W (antibody, V domains shown)
VH: B1 VH with Q30Y
VL: B1 VL with Y91W
B3: VL Y94E (antibody, V domains shown)
VH: B1 VH with Q30Y
VL: B1 VL with Y94E
B4: VH Y30F (antibody, V domains shown)
VH: B1 VH with Q30F
VL: B1 VL
B5: VL S93T (antibody, V domains shown)
VH: B1 VH with Q30Y
VL: B1 VL with S93T
B6: VL Y94S (antibody, V domains shown)
VH: B1 VH with Q30Y
VL: B1 VL with Y94S
B7: VH Y100bA (antibody, V domains shown)
VH: B1 VH with Q30Y, Y106A
VL: B1 VL
B8: VL Y91F (antibody, V domains shown)
VH: B1 VH with Q30Y
VL: B1 VL with Y91F
B9: VL S93K (antibody, V domains shown)
VH: B1 VH with Q30Y
VL: B1 VL with S93K
B10: VL Y94Q (antibody, V domains shown)
VH: B1 VH with Q30Y
VL: B1 VL with Y94Q
B11: VL Y94V (antibody, V domains shown)
VH: B1 VH with Q30Y
VL: B1 VL with Y94V
B12: VL Y94L (antibody, V domains shown)
VH: B1 VH with Q30Y
VL: B1 VL with Y94L
B13: VL S93F (antibody, V domains shown)
VH: B1 VH with Q30Y
VL: B1 VL with S93F
B14: VL S93N (antibody, V domains shown)
VH: B1 VH with Q30Y
VL: B1 VL with S93N
B15: VL Y94F (antibody, V domains shown)
VH: B1 VH with Q30Y
VL: B1 VL with Y94F
B16: VL S93D (antibody, V domains shown)
VH: B1 VH with Q30Y
VL: B1 VL with S93D
B17: VH Y30T (antibody, V domains shown)
VH: B1 VH with Q30T
VL: B1 VL
B18: VL S93Q (antibody, V domains shown)
VH: B1 VH with Q30Y
VL: B1 VL with S93Q
B19: VL Y94D (antibody, V domains shown)
VH: B1 VH with Q30Y
VL: B1 VL with Y94D
B20: VH Y31V (antibody, V domains shown)
VH: B1 VH with Q30Y, Y31V
VL: B1 VL
B21: VL Y91S (antibody, V domains shown)
VH: B1 VH with Q30Y
VL: B1 VL with Y91S
B22: VH Y30W (antibody, V domains shown)
VH: B1 VH with Q30W
VL: B1 VL
B23: VL Y91K (antibody, V domains shown)
VH: B1 VH with Q30Y
VL: B1 VL with Y91K
B24: VH Y30V (antibody, V domains shown)
VH: B1 VH with Q30V
VL: B1 VL
B25: VL Y91E (antibody, V domains shown)
VH: B1 VH with Q30Y
VL: B1 VL with Y91E
B26: VH Y30S (antibody, V domains shown)
VH: B1 VH with Q30S
VL: B1 VL
B27: VH Y30I (antibody, V domains shown)
VH: B1 VH with Q30I
VL: B1 VL
B28: VH V99K (antibody, V domains shown)
VH: B1 VH with Q30Y, V103K
VL: B1 VL
B29: VL Y94H (antibody, V domains shown)
VH: B1 VH with Q30Y
VL: B1 VL with Y94H
B30: VL Y91L (antibody, V domains shown)
VH: B1 VH with Q30Y
VL: B1 VL with Y91L
B31: VH Y31F (antibody, V domains shown)
VH: B1 VH with Q30Y, Y31F
VL: B1 VL
B32: VL Y91Q (antibody, V domains shown)
VH: B1 VH with Q30Y
VL: B1 VL with Y91Q
B33: VH Y30L (antibody, V domains shown)
VH: B1 VH with Q30L
VL: B1 VL
B34: VL S93R (antibody, V domains shown)
VH: B1 VH with Q30Y
VL: B1 VL with S93R
B35: VL S93I (antibody, V domains shown)
VH: B1 VH with Q30Y
VL: B1 VL with S93I
B36: VH Y31L (antibody, V domains shown)
VH: B1 VH with Q30Y, Y31L
VL: B1 VL
B37: VH Y31T (antibody, V domains shown)
VH: B1 VH with Q30Y, Y31T
VL: B1 VL
B38: VL Y94R (antibody, V domains shown)
VH: B1 VH with Q30Y
VL: B1 VL with Y94R
B39: VH Y30A (antibody, V domains shown)
VH: B1 VH with Q30A
VL: B1 VL
B40: VH Y30K (antibody, V domains shown)
VH: B1 VH with Q30K
VL: B1 VL
B41: VH Y100bV (antibody, V domains shown)
VH: B1 VH with Q30Y, Y106V
VL: B1 VL
B42: VH Y30R (antibody, V domains shown)
VH: B1 VH with Q30R
VL: B1 VL
B43: VL S93H (antibody, V domains shown)
VH: B1 VH with Q30Y
VL: B1 VL with S93H
B44: VH Y30D (antibody, V domains shown)
VH: B1 VH with Q30D
VL: B1 VL
B45: VL Y94W (antibody, V domains shown)
VH: B1 VH with Q30Y
VL: B1 VL with Y94W
B46: VL S93E (antibody, V domains shown)
VH: B1 VH with Q30Y
VL: B1 VL with S93E

Chain of GCGR extracellular domain (P47871 26-477): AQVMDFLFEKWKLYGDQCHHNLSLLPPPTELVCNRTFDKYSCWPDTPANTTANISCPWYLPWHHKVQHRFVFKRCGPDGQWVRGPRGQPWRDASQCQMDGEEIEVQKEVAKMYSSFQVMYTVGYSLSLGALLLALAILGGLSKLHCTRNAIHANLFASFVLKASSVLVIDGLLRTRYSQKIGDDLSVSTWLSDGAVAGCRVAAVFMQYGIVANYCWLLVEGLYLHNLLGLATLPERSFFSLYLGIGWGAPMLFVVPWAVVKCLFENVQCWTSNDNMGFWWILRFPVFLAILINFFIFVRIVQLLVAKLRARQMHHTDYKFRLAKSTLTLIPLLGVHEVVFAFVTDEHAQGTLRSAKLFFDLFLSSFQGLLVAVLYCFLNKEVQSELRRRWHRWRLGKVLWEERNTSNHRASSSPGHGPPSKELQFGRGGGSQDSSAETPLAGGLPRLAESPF

The assay addresses GCGR extracellular domain (human, UniProt P47871). The assay is described as follows: SPR.
On to B1, for which the Kd stood at 23.4 nM. That is a double-digit nanomolar value.

B2 gave a Kd of 3.02 nM.

In turn, B3 yielded a Kd of 1.85 nM.

For the molecule B4, the Kd was determined as 1.23 nM.

B5 displayed a Kd of 1.27 nM.

Consider B6, for which binding was characterised by a dissociation constant (Kd) of 2.08 nM.

For B7, the Kd worked out at 3.54 nM.

Molecule B8 came in with a Kd of 1.69 nM.

In turn, B9 returned a Kd of 2.91 nM.

Consider B10, for which the Kd was determined as 2.08 nM.

Consider B11, for which the Kd stood at 2.46 nM.

On to B12, for which the Kd turned out to be 2.05 nM. This Kd and that of the molecule before are within 1.5-fold of each other.

On to B13, for which the Kd is 5.59 nM. This Kd lies about 2.7-fold higher than the previous one.

B14 registered a Kd of 0.962 nM.

B15: the Kd was determined as 2.23 nM.

As for B16, the Kd was 1.3 nM.

For the molecule B17, the affinity, expressed as Kd, was 24.8 nM.

In turn, B18 returned a Kd of 2.18 nM. This Kd is about 11-fold lower than that of the molecule before.

As to B19, the Kd stood at 1.92 nM.

For the molecule B20, binding was characterised by a dissociation constant (Kd) of 406 nM.

As to B21, the Kd came out at 2.31 nM.

For B22, the Kd came to 6.44 nM.

B23 gave a Kd of 2.08 nM.

As for B24, the Kd amounted to 6.68 nM.

Take B25: the Kd turned out to be 3.42 nM.

Molecule B26 displayed a Kd of 261 nM.

The molecule B27 gave a Kd of 5.54 nM.

B28 yielded a Kd of 17.3 nM.

On to B29, for which the Kd turned out to be 3.02 nM. Against the preceding molecule, the Kd is about 5.7-fold lower.

B30: the affinity, expressed as Kd, was 4.2 nM.

B31: the Kd came out at 6.94 nM.

B32 returned a Kd of 2.36 nM.

B33 showed a Kd of 4.63 nM. Compared with the last molecule, the Kd is about 2-fold higher.

B34 registered a Kd of 0.766 nM. This Kd is about 6-fold lower than that of the molecule before.

The molecule B35 gave a Kd of 2.28 nM.

In turn, B36 displayed a Kd of 2640 nM.

In turn, B37 had a Kd of 194 nM.

B38 came in with a Kd of 1.41 nM.

As to B39, the Kd turned out to be 21.3 nM.

Consider B40, for which the Kd was determined as 363 nM.

In turn, B41 yielded a Kd of 1.08 nM.

In turn, B42 came in with a Kd of 110 nM.

On to B43, for which the Kd was 2.38 nM.

On to B44, for which the Kd was 20.2 nM.

Molecule B45 had a Kd of 2.55 nM.

B46 registered a Kd of 0.968 nM.
